{
  "source": "paper PMC8498466",
  "proteins": {"B1": {"name": "LysO (LysON-HA) (Escherichia coli K-12) (protein)", "chain": "MFSGLLIILVPLIVGYLIPLRQQAALKVINQLLSWMVYLILFFMGISLAFLDNLASNLLAILHYSAVSITVILLCNIAALMWLERGLPWRNHHQQEKLPSRIAMALESLKLCGVVVIGFAIGLSGLAFLQHATEASEYTLILLLFLVGIQLRNNGMTLKQIVLNRRGMIVAVVVVVSSLIGGLINAFILDLPINTALAMASGFGWYSLSGILLTESFGPVIGSAAFFNDLARELIAIMLIPGLIRRSRSTALGLCGATSMDFTLPVLQRTGGLDMVPAAIVHGFILSLLVPILIAFFSA"}},
  "substrate": "NCCSC[C@H](N)C(=O)O",
  "test": "cells, lysate or membranes",
  "settings": "inside-out membrane vesicles energized with 0.25 mM ATP; 50 mM KCl, 10 mM MgSO4, valinomycin 0.25 uM; Thl 0.5-5 mM; Thl/H+ antiport (export direction)",
  "data": [
    {"protein": "B1", "values": [
      {"measurement": "Km", "value": 1500, "unit": "µM"}
    ]}
  ]
}
